From US20210380663A1 (ACCELERON PHARMA, published 2021)
Like-named read-outs stand apart in the source and are kept apart here.

T1: TGFβ3 (human, UniProt P10600 301-412)
T1 sequence (looked up): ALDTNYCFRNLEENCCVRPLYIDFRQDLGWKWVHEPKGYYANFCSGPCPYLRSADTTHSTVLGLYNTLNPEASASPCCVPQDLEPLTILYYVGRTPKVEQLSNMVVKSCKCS

T2: TGFβ2 (human) (UniProt P61812)
T2 sequence (looked up): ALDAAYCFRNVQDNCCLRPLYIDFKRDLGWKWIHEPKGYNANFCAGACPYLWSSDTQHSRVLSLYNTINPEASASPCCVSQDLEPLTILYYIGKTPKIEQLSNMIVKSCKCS

T3: BMP9 (UniProt Q9UK05)
T3 sequence (looked up): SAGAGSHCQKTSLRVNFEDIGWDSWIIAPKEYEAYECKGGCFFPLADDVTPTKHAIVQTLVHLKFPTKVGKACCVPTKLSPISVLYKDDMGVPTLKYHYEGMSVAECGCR

T4: BMP10 (UniProt O95393)
T4 sequence (looked up): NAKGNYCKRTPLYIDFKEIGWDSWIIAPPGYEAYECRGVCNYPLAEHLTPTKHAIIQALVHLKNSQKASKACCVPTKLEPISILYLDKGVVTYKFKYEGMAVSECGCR

T5: activin A (UniProt P08476 311-426)
T5 sequence (looked up): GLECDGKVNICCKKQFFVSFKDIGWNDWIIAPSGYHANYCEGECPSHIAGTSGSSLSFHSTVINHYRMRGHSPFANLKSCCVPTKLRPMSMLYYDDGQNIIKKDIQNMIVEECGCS

T6: activin B (UniProt P09529)
T6 sequence (looked up): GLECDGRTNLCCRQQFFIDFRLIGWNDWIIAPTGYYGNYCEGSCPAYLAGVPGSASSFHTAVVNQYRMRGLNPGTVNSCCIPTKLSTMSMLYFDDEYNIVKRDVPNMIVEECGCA


Experiments:
TGFβ1 [1] = biological target: T7, TGFβ1 (human, UniProt P01137 279-390)
TGFβ3 [2] = biological target: T1, TGFβ3
TGFβ2 (human) = biological target: T2, TGFβ2 (human)
GDF11 [3] = biological target: T8, GDF11 (UniProt O95390 299-407)
GDF8 = GDF8 (UniProt O14793)
BMP9 = biological target: T3, BMP9
BMP10 = biological target: T4, BMP10
TGFβ1 [4] = biological target: T7, TGFβ1; remark: listed apart in the source
activin A [5] = biological target: T5, activin A
activin B = biological target: T6, activin B
TGFβ1 [6] = biological target: T7, TGFβ1; experiment: cell-based or functional assay
TGFβ3 [7] = biological target: T1, TGFβ3; experiment: cell-based or functional assay
GDF11 [8] = biological target: T8, GDF11; experiment: cell-based or functional assay
TGFβ1 [9] = biological target: T7, TGFβ1; experiment: cell-based or functional assay; remark: listed apart in the source
activin A [10] = biological target: T5, activin A; experiment: cell-based or functional assay
TGFβ3 [11] = biological target: T1, TGFβ3; experiment: cell-based or functional assay; remark: listed apart in the source
TGFβ3 [12] = biological target: T1, TGFβ3; remark: listed apart in the source

Sequence of TβRII-Fc homodimer (Fc fusion) (chain): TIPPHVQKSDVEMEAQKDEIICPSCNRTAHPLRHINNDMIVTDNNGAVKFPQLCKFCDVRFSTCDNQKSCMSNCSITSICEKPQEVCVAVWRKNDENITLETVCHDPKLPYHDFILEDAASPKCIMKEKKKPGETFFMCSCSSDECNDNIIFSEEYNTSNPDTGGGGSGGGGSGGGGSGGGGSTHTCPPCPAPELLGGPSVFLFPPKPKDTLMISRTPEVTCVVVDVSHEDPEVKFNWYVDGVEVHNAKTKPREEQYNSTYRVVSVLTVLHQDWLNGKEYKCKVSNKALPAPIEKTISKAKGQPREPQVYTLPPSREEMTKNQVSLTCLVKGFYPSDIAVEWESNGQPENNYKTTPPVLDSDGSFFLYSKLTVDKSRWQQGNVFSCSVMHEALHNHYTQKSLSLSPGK
T8 sequence (O95390 299-407 limits assumed): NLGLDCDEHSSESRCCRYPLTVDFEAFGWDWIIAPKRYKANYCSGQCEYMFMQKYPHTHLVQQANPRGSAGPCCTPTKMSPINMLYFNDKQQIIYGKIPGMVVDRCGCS
T7 sequence (P01137 279-390 limits assumed): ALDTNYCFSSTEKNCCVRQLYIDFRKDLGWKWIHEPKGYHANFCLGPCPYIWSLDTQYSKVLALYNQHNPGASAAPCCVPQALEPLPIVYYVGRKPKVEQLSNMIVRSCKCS

Row | Molecule | IC50; inhibition of TGFβ2 signalling, CAGA12 reporter gene assay (TGFβ2 (human)) [µg/mL] | IC50; inhibition of GDF11 signalling, CAGA12 reporter gene assay (GDF11 [3]) | IC50; inhibition of GDF8 signalling, CAGA12 reporter gene assay (GDF8) | IC50; inhibition of BMP9 signalling, CAGA12 reporter gene assay (BMP9) | IC50; inhibition of BMP10 signalling, CAGA12 reporter gene assay (BMP10) | IC50; inhibition of TGFβ1 signalling, CAGA12 reporter gene assay (TGFβ1 [4]) | IC50; inhibition of activin A signalling, CAGA12 reporter gene assay (activin A [5]) | IC50; inhibition of activin B signalling, CAGA12 reporter gene assay (activin B) | IC50; inhibition of GDF11 signalling, CAGA12 reporter gene assay in A204 cells (GDF11 [8]) [nM] | IC50; inhibition of activin A signalling, CAGA12 reporter gene assay in A204 cells (activin A [10]) [nM] | also measured
1 | TGFBRII-(G4S)4-hFc dimer (Fc fusion) |  |  |  |  |  |  |  |  |  |  | IC50; inhibition of TGFβ1 signalling, CAGA12 reporter gene assay in A549 cells (TGFβ1 [1]): 0.143 nM; IC50; inhibition of TGFβ3 signalling, CAGA12 reporter gene assay in A549 cells (TGFβ3 [2]): 0.106 nM
2 | TβRII-Fc homodimer (Fc fusion) | > 20 | > 20 µg/mL | > 20 µg/mL | > 20 µg/mL | > 20 µg/mL | 0.017 nM | > 20 µg/mL | > 20 µg/mL |  |  | 
3 | Fc1-(G4S)4G-TGFBRII, homodimer (Fc fusion) GASNTKVDKRVTGGGTHTCPPCPAPELLGGPSVFLFPPKPKDTLMISRTPEVTCVVVDVSHEDPEVKFNWYVDGVEVHNAKTKPREEQYNSTYRVVSVLTVLHQDWLNGKEYKCKVSNKALPAPIEKTISKAKGQPREPQVCTLPPSREEMTKNQVSLSCAVKGFYPSDIAVEWESNGQPENNYKTTPPVLDSDGSFFLVSKLTVDKSRWQQGNVFSCSVMHEALHNHYTQKSLSLSPGAGGGGSGGGGSGGGGSGGGGSGTIPPHVQKSDVEMEAQKDEIICPSCNRTAHPLRHINNDMIVTDNNGAVKFPQLCKFCDVRFSTCDNQKSCMSNCSITSICEKPQEVCVAVWRKNDENITLETVCHDPKLPYHDFILEDAASPKCIMKEKKKPGETFFMCSCSSDECNDNIIFSEEYNTSNPD |  |  |  |  |  |  |  |  |  |  | CAGA12 reporter gene assay in A549 cells, inhibition relative to the TGFBRII-(G4S)4-hFc homodimer (TGFβ1 [6]): ~7 fold; CAGA12 reporter gene assay in A549 cells, inhibition relative to the TGFBRII-(G4S)4-hFc homodimer (TGFβ3 [7]): ~7 fold
4 | ActRIIB-Fc-(G4S)4G-TGFBRII + Fc1-(G4S)4G-TGFBRII (3-arm) (Fc fusion) ActRIIB-Fc(knob)-(G4S)4G-TGFBRII chain: GASGRGEAETRECIYYNANWELERTNQSGLERCEGEQDKRLHCYASWRNSSGTIELVKKGCWLDDFNCYDRQECVATEENPQVYFCCCEGNFCNERFTHLPEAGGPEVTYEPPPTAPTGGGTHTCPPCPAPELLGGPSVFLFPPKPKDTLMISRTPEVTCVVVDVSHEDPEVKFNWYVDGVEVHNAKTKPREEQYNSTYRVVSVLTVLHQDWLNGKEYKCKVSNKALPAPIEKTISKAKGQPREPQVYTLPPCREEMTKNQVSLWCLVKGFYPSDIAVEWESNGQPENNYKTTPPVLDSDGSFFLYSKLTVDKSRWQQGNVFSCSVMHEALHNHYTQKSLSLSPGAGGGGSGGGGSGGGGSGGGGSGTIPPHVQKSDVEMEAQKDEIICPSCNRTAHPLRHINNDMIVTDNNGAVKFPQLCKFCDVRFSTCDNQKSCMSNCSITSICEKPQEVCVAVWRKNDENITLETVCHDPKLPYHDFILEDAASPKCIMKEKKKPGETFFMCSCSSDECNDNIIFSEEYNTSNPD Fc1(hole)-(G4S)4G-TGFBRII chain: GASNTKVDKRVTGGGTHTCPPCPAPELLGGPSVFLFPPKPKDTLMISRTPEVTCVVVDVSHEDPEVKFNWYVDGVEVHNAKTKPREEQYNSTYRVVSVLTVLHQDWLNGKEYKCKVSNKALPAPIEKTISKAKGQPREPQVCTLPPSREEMTKNQVSLSCAVKGFYPSDIAVEWESNGQPENNYKTTPPVLDSDGSFFLVSKLTVDKSRWQQGNVFSCSVMHEALHNHYTQKSLSLSPGAGGGGSGGGGSGGGGSGGGGSGTIPPHVQKSDVEMEAQKDEIICPSCNRTAHPLRHINNDMIVTDNNGAVKFPQLCKFCDVRFSTCDNQKSCMSNCSITSICEKPQEVCVAVWRKNDENITLETVCHDPKLPYHDFILEDAASPKCIMKEKKKPGETFFMCSCSSDECNDNIIFSEEYNTSNPD |  |  |  |  |  |  |  |  | 4.4 | 2.96 | IC50; inhibition of TGFβ1 signalling, CAGA12 reporter gene assay in A549 cells (TGFβ1 [9]): 0.0201 nM; IC50; inhibition of TGFβ3 signalling, CAGA12 reporter gene assay in A549 cells (TGFβ3 [11]): 0.016 nM
5 | ActRIIB-Fc homodimer (Fc fusion) ActRIIB-Fc chain: GRGEAETRECIYYNANWELERTNQSGLERCEGEQDKRLHCYASWRNSSGTIELVKKGCWLDDFNCYDRQECVATEENPQVYFCCCEGNFCNERFTHLPEAGGPEVTYEPPPTAPTGGGTHTCPPCPAPELLGGPSVFLFPPKPKDTLMISRTPEVTCVVVDVSHEDPEVKFNWYVDGVEVHNAKTKPREEQYNSTYRVVSVLTVLHQDWLNGKEYKCKVSNKALPVPIEKTISKAKGQPREPQVYTLPPSREEMTKNQVSLTCLVKGFYPSDIAVEWESNGQPENNYKTTPPVLDSDGSFFLYSKLTVDKSRWQQGNVFSCSVMHEALHNHYTQKSLSLSPGK | > 20 | 0.09 nM | 0.83 nM | 2 nM | 0.556 nM | > 20 µg/mL | 0.05 nM | 0.07 nM | 0.135 | 0.079 | IC50; inhibition of TGFβ3 signalling, CAGA12 reporter gene assay (TGFβ3 [12]): > 20 µg/mL

Now from value to molecule, other results behind:

Row | IC50; inhibition of TGFβ2 signalling, CAGA12 reporter gene assay (TGFβ2 (human)) [µg/mL] | IC50; inhibition of GDF11 signalling, CAGA12 reporter gene assay (GDF11 [3]) | IC50; inhibition of GDF8 signalling, CAGA12 reporter gene assay (GDF8) | IC50; inhibition of BMP9 signalling, CAGA12 reporter gene assay (BMP9) | IC50; inhibition of BMP10 signalling, CAGA12 reporter gene assay (BMP10) | IC50; inhibition of TGFβ1 signalling, CAGA12 reporter gene assay (TGFβ1 [4]) | IC50; inhibition of activin A signalling, CAGA12 reporter gene assay (activin A [5]) | IC50; inhibition of activin B signalling, CAGA12 reporter gene assay (activin B) | IC50; inhibition of GDF11 signalling, CAGA12 reporter gene assay in A204 cells (GDF11 [8]) [nM] | IC50; inhibition of activin A signalling, CAGA12 reporter gene assay in A204 cells (activin A [10]) [nM] | Molecule | also measured
6 |  |  |  |  |  |  |  |  | 2.61 | 1.41 | ActRIIB-Fc Single-Arm (Fc fusion) ActRIIB-Fc chain: GRGEAETRECIYYNANWELERTNQSGLERCEGEQDKRLHCYASWRNSSGTIELVKKGCWLDDFNCYDRQECVATEENPQVYFCCCEGNFCNERFTHLPEAGGPEVTYEPPPTAPTGGGTHTCPPCPAPELLGGPSVFLFPPKPKDTLMISRTPEVTCVVVDVSHEDPEVKFNWYVDGVEVHNAKTKPREEQYNSTYRVVSVLTVLHQDWLNGKEYKCKVSNKALPAPIEKTISKAKGQPREPQVYTLPPSRKEMTKNQVSLTCLVKGFYPSDIAVEWESNGQPENNYKTTPPVLKSDGSFFLYSKLTVDKSRWQQGNVFSCSVMHEALHNHYTQKSLSLSPGK Fc chain without receptor domain: SNTKVDKRVTGGGTHTCPPCPAPELLGGPSVFLFPPKPKDTLMISRTPEVTCVVVDVSHEDPEVKFNWYVDGVEVHNAKTKPREEQYNSTYRVVSVLTVLHQDWLNGKEYKCKVSNKALPAPIEKTISKAKGQPREPQVYTLPPSREEMTKNQVSLTCLVKGFYPSDIAVEWESNGQPENNYDTTPPVLDSDGSFFLYSDLTVDKSRWQQGNVFSCSVMHEALHNHYTQKSLSLSPGK | 
7 | > 20 | 1.73 nM | 8.16 nM | > 20 µg/mL | 1.76 nM | 0.348 nM | 0.85 nM | 0.64 nM |  |  | ActRIIB-Fc:TβRII-Fc heterodimer (Fc fusion, not shown: a dimerising Fc or GST) chain 1: GRGEAETRECIYYNANWELERTNQSGLERCEGEQDKRLHCYASWRNSSGTIELVKKGCWLDDFNCYDRQECVATEENPQVYFCCCEGNFCNERFTHLPEAGGPEVTYEPPPTAPTGGGGSGGGGSGGGGSGGGGS chain 2: TIPPHVQKSDVEMEAQKDEIICPSCNRTAHPLRHINNDMIVTDNNGAVKFPQLCKFCDVRFSTCDNQKSCMSNCSITSICEKPQEVCVAVWRKNDENITLETVCHDPKLPYHDFILEDAASPKCIMKEKKKPGETFFMCSCSSDECNDNIIFSEEYNTSNPDTGGGGSGGGGSGGGGSGGGGS | IC50; inhibition of TGFβ3 signalling, CAGA12 reporter gene assay (TGFβ3 [12]): 0.31 nM
